Source: patent publication US20100303819A1

Key:
Experiment in all cases: control-mAb-coated microbeads on monocyte-derived macrophages (which carry hDCL-1, MMR and DEC-205), confocal microscopy
[1] = target: DEC-205 (CD205) on human monocyte-derived macrophages (human) (UniProt O60449)
[2] = target: MMR/CD206 on human monocyte-derived macrophages (human) (UniProt P22897)
[3] = target: human DCL-1 (native, on human leukocytes) (human) (UniProt Q8IX05)

Measured: microbeads bound per cell

Sequence of UniProt Q8IX05 (Q8IX05 23-232 limits assumed): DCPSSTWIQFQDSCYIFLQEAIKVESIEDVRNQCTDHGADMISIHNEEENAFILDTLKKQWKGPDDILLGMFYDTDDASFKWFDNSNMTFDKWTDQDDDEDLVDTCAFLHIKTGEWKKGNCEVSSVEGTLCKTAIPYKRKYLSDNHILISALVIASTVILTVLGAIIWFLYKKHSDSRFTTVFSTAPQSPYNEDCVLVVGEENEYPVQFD
Sequence of UniProt P22897 (P22897 19-1456): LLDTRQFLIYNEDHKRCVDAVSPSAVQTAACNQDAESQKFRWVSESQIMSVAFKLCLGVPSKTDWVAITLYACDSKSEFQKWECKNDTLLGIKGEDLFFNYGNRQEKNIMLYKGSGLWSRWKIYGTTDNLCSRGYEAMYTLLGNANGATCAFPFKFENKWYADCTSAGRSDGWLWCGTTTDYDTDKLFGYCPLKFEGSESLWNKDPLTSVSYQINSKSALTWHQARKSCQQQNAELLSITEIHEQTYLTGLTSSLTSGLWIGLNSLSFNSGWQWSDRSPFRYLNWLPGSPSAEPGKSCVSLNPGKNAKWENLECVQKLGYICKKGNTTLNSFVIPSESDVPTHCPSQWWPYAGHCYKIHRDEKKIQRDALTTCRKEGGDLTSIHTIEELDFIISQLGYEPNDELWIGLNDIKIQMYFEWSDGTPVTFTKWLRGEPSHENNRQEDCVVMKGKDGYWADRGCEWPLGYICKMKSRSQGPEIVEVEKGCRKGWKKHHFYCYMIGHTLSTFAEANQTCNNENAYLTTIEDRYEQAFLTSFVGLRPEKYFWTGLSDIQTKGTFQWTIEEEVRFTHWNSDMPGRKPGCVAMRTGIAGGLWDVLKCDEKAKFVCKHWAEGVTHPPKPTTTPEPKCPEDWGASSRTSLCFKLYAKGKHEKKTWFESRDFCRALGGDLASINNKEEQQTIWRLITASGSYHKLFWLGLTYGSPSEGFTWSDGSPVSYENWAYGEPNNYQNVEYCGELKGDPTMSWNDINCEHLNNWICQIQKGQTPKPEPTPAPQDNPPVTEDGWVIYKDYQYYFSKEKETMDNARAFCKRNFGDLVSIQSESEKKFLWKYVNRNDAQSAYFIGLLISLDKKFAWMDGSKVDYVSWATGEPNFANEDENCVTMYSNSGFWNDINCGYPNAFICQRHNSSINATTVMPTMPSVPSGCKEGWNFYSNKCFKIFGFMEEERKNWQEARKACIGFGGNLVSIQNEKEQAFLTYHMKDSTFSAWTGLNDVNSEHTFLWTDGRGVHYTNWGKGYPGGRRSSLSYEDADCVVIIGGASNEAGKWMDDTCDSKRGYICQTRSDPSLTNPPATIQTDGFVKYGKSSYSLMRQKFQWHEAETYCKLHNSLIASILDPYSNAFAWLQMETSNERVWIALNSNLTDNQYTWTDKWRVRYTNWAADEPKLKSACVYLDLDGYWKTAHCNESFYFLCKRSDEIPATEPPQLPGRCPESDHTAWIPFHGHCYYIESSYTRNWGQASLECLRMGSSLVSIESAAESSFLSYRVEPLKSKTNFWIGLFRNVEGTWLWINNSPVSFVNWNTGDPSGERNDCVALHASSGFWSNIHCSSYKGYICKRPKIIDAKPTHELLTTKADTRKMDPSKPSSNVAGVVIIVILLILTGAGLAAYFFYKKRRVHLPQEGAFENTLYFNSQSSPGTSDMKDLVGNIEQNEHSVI
Sequence of UniProt O60449 (O60449 28-1722): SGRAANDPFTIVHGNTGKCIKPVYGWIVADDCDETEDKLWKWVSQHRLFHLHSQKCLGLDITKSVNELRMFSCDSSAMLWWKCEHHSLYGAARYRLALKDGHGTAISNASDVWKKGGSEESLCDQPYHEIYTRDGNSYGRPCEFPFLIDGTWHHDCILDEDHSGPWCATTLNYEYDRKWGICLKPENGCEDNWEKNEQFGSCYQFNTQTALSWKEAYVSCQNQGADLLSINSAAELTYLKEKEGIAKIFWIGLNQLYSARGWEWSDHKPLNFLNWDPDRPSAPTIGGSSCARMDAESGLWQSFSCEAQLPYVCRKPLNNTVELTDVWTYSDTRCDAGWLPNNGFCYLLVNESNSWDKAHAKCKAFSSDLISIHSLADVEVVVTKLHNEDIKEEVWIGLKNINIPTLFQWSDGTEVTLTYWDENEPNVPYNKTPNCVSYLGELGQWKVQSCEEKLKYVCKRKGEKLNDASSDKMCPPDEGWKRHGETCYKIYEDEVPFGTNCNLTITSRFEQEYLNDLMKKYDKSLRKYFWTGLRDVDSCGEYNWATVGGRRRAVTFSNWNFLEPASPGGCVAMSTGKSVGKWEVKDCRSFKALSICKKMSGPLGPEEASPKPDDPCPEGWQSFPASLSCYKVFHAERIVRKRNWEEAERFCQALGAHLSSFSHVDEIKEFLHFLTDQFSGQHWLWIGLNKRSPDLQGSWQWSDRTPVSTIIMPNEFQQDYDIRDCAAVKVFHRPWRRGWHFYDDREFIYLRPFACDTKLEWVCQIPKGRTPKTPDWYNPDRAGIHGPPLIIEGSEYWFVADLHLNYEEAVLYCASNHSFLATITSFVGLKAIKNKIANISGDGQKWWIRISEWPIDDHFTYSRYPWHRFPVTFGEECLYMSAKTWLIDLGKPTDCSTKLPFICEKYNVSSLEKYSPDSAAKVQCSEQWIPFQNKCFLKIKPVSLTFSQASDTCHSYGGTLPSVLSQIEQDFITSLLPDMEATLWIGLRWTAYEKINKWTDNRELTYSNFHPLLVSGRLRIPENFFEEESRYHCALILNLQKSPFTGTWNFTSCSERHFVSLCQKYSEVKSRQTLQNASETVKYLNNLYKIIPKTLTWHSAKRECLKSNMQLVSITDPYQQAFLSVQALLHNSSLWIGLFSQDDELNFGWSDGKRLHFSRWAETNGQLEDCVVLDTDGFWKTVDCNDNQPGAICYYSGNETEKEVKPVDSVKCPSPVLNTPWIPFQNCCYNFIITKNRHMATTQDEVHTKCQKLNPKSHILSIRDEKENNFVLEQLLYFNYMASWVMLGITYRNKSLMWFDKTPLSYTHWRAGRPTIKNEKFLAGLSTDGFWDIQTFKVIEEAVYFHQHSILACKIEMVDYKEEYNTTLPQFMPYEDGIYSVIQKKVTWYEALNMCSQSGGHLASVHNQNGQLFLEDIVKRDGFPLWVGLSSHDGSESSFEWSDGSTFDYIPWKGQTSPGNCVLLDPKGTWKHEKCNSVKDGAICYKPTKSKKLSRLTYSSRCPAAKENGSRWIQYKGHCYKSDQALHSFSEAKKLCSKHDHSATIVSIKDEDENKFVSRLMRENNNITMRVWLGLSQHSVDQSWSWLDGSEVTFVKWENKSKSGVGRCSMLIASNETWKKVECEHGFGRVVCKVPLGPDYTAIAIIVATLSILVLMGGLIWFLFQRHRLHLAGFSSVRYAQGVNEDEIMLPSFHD

isotype control mAb 401.21 (antibody)
0.09 beads/cell: all assays above
